Laboratory results from patent publication US20250346634A1, “CYCLIC PEPTIDES FOR TARGETING EPIDERMAL GROWTH FACTOR RECEPTOR AND MUTATIONS THEREOF FOR DRUG DELIVERY” (priority 2022, published 2025).
Bridge positions count the residues as written; N and C are the ends. Square brackets hold non-standard residues; d marks the D form. Peptide text beside a SMILES is read from it. * marks the point of attachment. ξ: configuration not given here. FITC = O=C1OC2(c3ccc(O)cc3Oc3cc(O)ccc32)c2ccc(NC(=S)*)cc21; ξThr(3R) = C[C@@H](O)C(N)C(=O)O; GABA = NCCCC(=O)O

B1: FITC-labeled cyclic peptide P2, c(CSAETVESC) (peptide)
peptide: {FITC-GABA}-CSAETVESC-NH2
modifications: disulfide 1-9
SMILES: CC(C)[C@@H]1NC(=O)[C@H]([C@@H](C)O)NC(=O)[C@H](CCC(=O)O)NC(=O)[C@H](C)NC(=O)[C@H](CO)NC(=O)[C@@H](NC(=O)CCCNC(=S)Nc2ccc3c(c2)C(=O)OC32c3ccc(O)cc3Oc3cc(O)ccc32)CSSC[C@@H](C(N)=O)NC(=O)[C@H](CO)NC(=O)[C@H](CCC(=O)O)NC1=O
notes: also called FITC-labeled P2
B2: FITC-labeled cyclic peptide P8, c(CSALWASHC) (peptide)
peptide: {FITC-GABA}-CSALWASHC-NH2
modifications: disulfide 1-9
SMILES: CC(C)C[C@@H]1NC(=O)[C@H](C)NC(=O)[C@H](CO)NC(=O)[C@@H](NC(=O)CCCNC(=S)Nc2ccc3c(c2)C(=O)OC32c3ccc(O)cc3Oc3cc(O)ccc32)CSSC[C@@H](C(N)=O)NC(=O)[C@H](Cc2c[nH]cn2)NC(=O)[C@H](CO)NC(=O)[C@H](C)NC(=O)[C@H](Cc2c[nH]c3ccccc23)NC1=O
notes: also called FITC-labeled P8
B3: FITC-labeled cyclic peptide P9, c(CVNAMQSYC) (peptide)
peptide: {FITC-GABA}-CVNAMQSYC-NH2
modifications: disulfide 1-9
SMILES: CSCC[C@@H]1NC(=O)[C@H](C)NC(=O)[C@H](CC(N)=O)NC(=O)[C@H](C(C)C)NC(=O)[C@@H](NC(=O)CCCNC(=S)Nc2ccc3c(c2)C(=O)OC32c3ccc(O)cc3Oc3cc(O)ccc32)CSSC[C@@H](C(N)=O)NC(=O)[C@H](Cc2ccc(O)cc2)NC(=O)[C@H](CO)NC(=O)[C@H](CCC(N)=O)NC1=O
notes: also called FITC-P9; FITC-labeled P9
B4: FITC-labeled cyclic peptide P11, c(CAQYTPGRC) (peptide)
peptide: {FITC-GABA}-CAQYTPGRC-NH2
modifications: disulfide 1-9
SMILES: C[C@@H]1NC(=O)[C@@H](NC(=O)CCCNC(=S)Nc2ccc3c(c2)C(=O)OC32c3ccc(O)cc3Oc3cc(O)ccc32)CSSC[C@@H](C(N)=O)NC(=O)[C@H](CCCNC(=N)N)NC(=O)CNC(=O)[C@@H]2CCCN2C(=O)[C@H]([C@@H](C)O)NC(=O)[C@H](Cc2ccc(O)cc2)NC(=O)[C@H](CCC(N)=O)NC1=O
notes: also called FITC-labeled P11
B5: FITC-labeled cyclic peptide P3, c(CVRWRFGRC) (peptide)
peptide: {FITC-GABA}-CVRWRFGRC-NH2
modifications: disulfide 1-9
SMILES: CC(C)[C@@H]1NC(=O)[C@@H](NC(=O)CCCNC(=S)Nc2ccc3c(c2)C(=O)OC32c3ccc(O)cc3Oc3cc(O)ccc32)CSSC[C@@H](C(N)=O)NC(=O)[C@H](CCCNC(=N)N)NC(=O)CNC(=O)[C@H](Cc2ccccc2)NC(=O)[C@H](CCCNC(=N)N)NC(=O)[C@H](Cc2c[nH]c3ccccc23)NC(=O)[C@H](CCCNC(=N)N)NC1=O
notes: also called FITC-labeled P3
B6: FITC-labeled cyclic peptide P4, c(CLAVEVRPC) (peptide)
peptide: {FITC-GABA}-CLAVEVRPC-NH2
modifications: disulfide 1-9
SMILES: CC(C)C[C@@H]1NC(=O)[C@@H](NC(=O)CCCNC(=S)Nc2ccc3c(c2)C(=O)OC32c3ccc(O)cc3Oc3cc(O)ccc32)CSSC[C@@H](C(N)=O)NC(=O)[C@@H]2CCCN2C(=O)[C@H](CCCNC(=N)N)NC(=O)[C@H](C(C)C)NC(=O)[C@H](CCC(=O)O)NC(=O)[C@H](C(C)C)NC(=O)[C@H](C)NC1=O
notes: also called FITC-labeled P4
B7: FITC-labeled cyclic peptide P5, c(CPNDSYHQC) (peptide)
peptide: {FITC-GABA}-CPNDSYHQC-NH2
modifications: disulfide 1-9
SMILES: NC(=O)CC[C@@H]1NC(=O)[C@H](Cc2c[nH]cn2)NC(=O)[C@H](Cc2ccc(O)cc2)NC(=O)[C@H](CO)NC(=O)[C@H](CC(=O)O)NC(=O)[C@H](CC(N)=O)NC(=O)[C@@H]2CCCN2C(=O)[C@@H](NC(=O)CCCNC(=S)Nc2ccc3c(c2)C(=O)OC32c3ccc(O)cc3Oc3cc(O)ccc32)CSSC[C@@H](C(N)=O)NC1=O
notes: also called FITC-labeled P5

How the values were obtained:
[1] = system: H1299, H1975 and DKMG cells; test: Phage display biopanning with NGS, selection of EGFR-specific peptides; type: cell-based; conditions: 3 rounds of biopanning, K562-derived sequences excluded
Description: A heptapeptide phage display library (Ph.D.-C7C Phage Display Library Kit, New England Biolabs, USA) was used for the in vitro biopanning experiments. All cell lines were individually incubated with phages from the stock library. […] Adherent cells (H1299, […] and DKMG) were plated at a density of 10^5 cells/ml in a 6-well plate. When the culture reached 80% confluence, the first well was incubated with phage library (10^11 pfu/10 μl) for 1 h at 37° C. with gentle stirring. The medium containing unbound phage was collected and transferred to the second, similar well and incubated again. The procedure was repeated with the third well. Cells in the third wells were washed four times with 0.5% Tween-20 in PBS. Then, 0.5 ml of elution buffer (0.2 M glycine-HCl, pH 2.2) was added and incubated for 10 min at 4° C.; the pH was neutralized by addition of 75 μl of 1 M Tris-HCl buffer, pH 9.0. The supernatant containing cell surface binding phage was collected. The cells were then lysed by incubation for 1 h at 4° C. with 2 ml of 30 mM Tris-HCl and 1 mM EDTA, pH 8.0. The medium was collected and centrifuged at 1,500 rpm for 5 min and the supernatant containing cell-internalized phage was transferred to a new tube. The internalized and surface-bound phages were amplified according to the manufacturer's instructions. An aliquot of the phages was retained for sequencing (see below) and the remainder was subjected to two additional rounds of biopanning. […]
Finally, two groups of peptides were constructed; the first included sequences that were present in all three EGFR+ve cell lines and included about 416 sequences; the second was divided into three subgroups, one for each cell line, wherein the subgroup for H1299 included some 1666 sequences, the subgroup for H1975 included some 10437 sequences, the subgroup for DKMG included some 981 sequences. From this list, top eleven S—S bridged cyclic peptides sequences were selected by their count in the sequencing data (the highest number of reads). […]

H1299 cells = test: XTT cytotoxicity assay on H1299 cells; type: cell-based; conditions: for IC50: H1299
Description: (§1) Cell growth in the presence of PDCs was measured by a commercial XTT assay kit (Cell Proliferation Kit, XTT based; Biological Industries, Israel). The cells (10^4 cells/well) were seeded in 96 well plates and incubated overnight in complete growth medium. The cells were washed and then cultured in 100 μl of new medium containing various concentrations of drug or peptides, for 24 h, 48 h, and 72 h. The XTT solution was added to each well and the plate was further incubated 2-3 h at 37° C. The optical density in the wells was measured at both 480 nm and 680 nm using a TECAN Infinite M200 ELISA reader. All the tests were done in triplicates, and each experiment was repeated three times.
(§2) The cytotoxicity of the Peptide-Drug conjugates (PDCs) was tested in a range of concentrations (0.5-50 μM) against H1299 and DKMG cells using two protocols. In the first protocol, cells were pre-incubated with P6, P9, P6-CPT, and P9-CPT for 6 hours, the medium was removed, and a fresh, drug-free complete medium was added for additional 24 h (designated as 6h24h) or 48 h (6h48h). In the second protocol, cells were exposed continuously to PDCs for 24 h, 48 h, and 72 hours.

DKMG cells = test: XTT cytotoxicity assay on DKMG cells; type: cell-based
Description: as §1, §2

[2] = system: EGFR+ve cells (H1299, DKMG) versus K562 cells; test: Flow cytometry internalization of peptide-FITC conjugates; type: cell-based; conditions: 2.5 μM FITC-labeled peptide
From the text: Analysis was done with FACS cell analyzer.

[3] = target: T1, EGFR variant III (EGFRvIII), on DKMG glioblastoma cells (human, UniProt P00533 25-1210); test: flow cytometry, 2.5 uM FITC-peptide on DKMG cells (EGFR WT and EGFRvIII)
T1 construct: whole, on cells; DKMG cells express both wild type EGFR (92% of cells) and EGFRvIII (82%); All results on DKMG cells are written against this molecule; also called EGFR mutant; EGFRVIII DKMG

[4] = target: T2, epidermal growth factor receptor (EGFR), wild type (human, UniProt P00533 25-1210); test: flow cytometry, 2.5 uM FITC-peptide on H1299 cells (EGFR overexpressing)
T2 construct: whole, on cells; The target is inferred from tumour cell lines that overexpress EGFR, compared with EGFR-negative cells; No purified receptor was used; also called EGFRWT; EGFR WT

Molecule | binding result [3] | binding result [4] | further results
C[C@@H]1NC(=O)[C@@H](N)CSSC[C@@H](C(N)=O)NC(=O)[C@H](CCCNC(=N)N)NC(=O)CNC(=O)[C@@H]2CCCN2C(=O)[C@H]([C@@H](C)O)NC(=O)[C@H](Cc2ccc(O)cc2)NC(=O)[C@H](CCC(N)=O)NC1=O [Peptide P11] (H-CAQYTPGRC-NH2; disulfide 1-9) |  |  | Cell line (peptide specificity per cell line; source of the cells from which the peptide was identified) [1]: DKMG
CC(C)C[C@@H]1NC(=O)[C@H](Cc2c[nH]c3ccccc23)NC(=O)[C@H](CC(N)=O)NC(=O)[C@@H](N)CSSC[C@@H](C(N)=O)NC(=O)[C@H](CCC(=O)O)NC(=O)C([C@@H](C)O)NC(=O)[C@H](CCCNC(=N)N)NC(=O)[C@H](CO)NC1=O (stereo partly drawn) [Peptide P10] (H-CNWLSR[ξThr(3R)]EC-NH2; disulfide 1-9) |  |  | Cell line (peptide specificity per cell line; source of the cells from which the peptide was identified) [1]: DKMG
CC[C@@]1(O)C(=O)OCc2c1cc1n(c2=O)Cc2cc3ccccc3nc2-1 [CPT, (S)-(+)-camptothecin, reference compound] |  |  | IC50 (H1299 cells; Homo sapiens, NCI-H1299, 6 w 48 h (6 h pre-incubation, then 48 h drug-free medium)): 6.7 ± 1.8 µM; IC50 (DKMG cells; 6 w 48 h (6 h pre-incubation, then 48 h drug-free medium)): 8.5 ± 1 µM; IC50 (DKMG cells; 24 h continuous exposure): 25 µM
CC[C@H](C)[C@@H]1NC(=O)[C@H](Cc2ccc(O)cc2)NC(=O)[C@H](CO)NC(=O)CNC(=O)[C@@H]2CCCN2C(=O)[C@H](C(C)C)NC(=O)[C@H](Cc2cnc[nH]2)NC(=O)[C@@H](N)CSSC[C@@H](C(N)=O)NC1=O [Peptide P6] (H-CHVPGSYIC-NH2; disulfide 1-9) |  |  | cytotoxicity (H1299 cells): did not demonstrate cytotoxicity; IC50 (H1299 cells; 24 h continuous exposure): 27.5 ± 0.8 µM; IC50 (H1299 cells; 48 h continuous exposure): 32 µM; IC50 (H1299 cells; 72 h continuous exposure): 28.8 µM
CC(C)[C@@H]1NC(=O)[C@@H](NC(=O)CCCNC(=S)Nc2ccc3c(c2)C(=O)OC32c3ccc(O)cc3Oc3cc(O)ccc32)CSSC[C@@H](C(N)=O)NC(=O)[C@H](CCCNC(=N)N)NC(=O)CNC(=O)[C@H](Cc2ccccc2)NC(=O)[C@H](CCCNC(=N)N)NC(=O)[C@H](Cc2c[nH]c3ccccc23)NC(=O)[C@H](CCCNC(=N)N)NC1=O [FITC-labeled P3] ({FITC-GABA}-CVRWRFGRC-NH2; disulfide 1-9) |  |  | internalization (flow cytometry) [2]: internalized only into to EGFR+ve cells
B1 | binds | binds | 
B2 | binds | binds | 
B3 | binds | binds | 
B4 | binds | binds | 
B5 | binds | binds | 
B6 | binds | binds | 
B7 | binds | binds | 
